This note sets out measurements from US20250388669A1 (published 2025).

The target in one assay is T1, PD-1 (human, UniProt Q15116 25-167, limits assumed).
T1 construct: The reporter assay used Jurkat T cells expressing human PD-1
Kind of assay: FCM or ELISA.

Another assay concerns the target T2, CD137 (human, UniProt Q07011 24-186).
T2 construct: Reporter assays used GS-H2-huCD137 cells expressing human CD137; also called 4-1BB/CD137; huCD137
In words: CD137 binding by FCM or ELISA.

T1 sequence (Q15116 25-167 limits assumed): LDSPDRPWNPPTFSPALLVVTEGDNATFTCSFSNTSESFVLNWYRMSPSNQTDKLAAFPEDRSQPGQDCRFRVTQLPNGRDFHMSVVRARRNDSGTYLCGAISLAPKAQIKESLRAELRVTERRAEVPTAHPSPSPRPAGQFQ

B1: Ly2405 (bispecific antibody, human IgG1, kappa)
chain 1: not shown
chain 2: QVTLKESGPALVKPTQTLTLTCTFSGFSLSTSGTCVSWIRQPPGKALEWLATICWEDSKGYNPSLKSRLTISKDTSKNQAVLTMTNMDPVDTATYYCARREDSGYFWFPYWGQGTLVTVSSASTKGPSVFPLAPSSKSTSGGTAALGCLVKDYFPEPVTVSWNSGALTSGVHTFPAVLQSSGLYSLSSVVTVPSSSLGTQTYICNVNHKPSNTKVDKKVEPKSCDKTHTCPPCPAPEAAGPSVFLFPPKPKDTLMISRTPEVTCVVVDVSHEDPEVKFNWYVDGVEVHNAKTKPREEQYNSTYRVVSVLTVLHQDWLNGKEYKCKVSNKALPAPIEKTISKAKGQPREPQVYTLPPSREEMTKNQVSLSCAVKGFYPSDIAVEWESNGQPENNYKTTPPVLDSDGSFFLVSKLTVDKSRWQQGNVFSCSVMHEALHNRFTQKSLSLSPGGGGGSGGGGSGGGGSGGGGSDIQMTQSPSSVSASVGDRVTITCRASQGIYSWLAWYQQKPGKAPNLLIYTASTLQSGVPSRFSGSGSGTDFTLTISSLQPEDFATYYCQQANIFPLTFGGGTKVEIK
light: NIQMTQSPSSLSASVGDRVTITCKAGQNVNNYLAWYQQKPGKAPKVLIFNANSLQTGVPSRFSGSGSGTDFTLTISSLQPEDFATYYCQQYNSWPTFGGGTKVEIKRTVAAPSVFIFPPSDEQLKSGTASVVCLLNNFYPREAKVQWKVDNALQSGNSQESVTEQDSKDSTYSLSSTLTLSKADYEKHKVYACEVTHQGLSSPVTKSFNRGEC
notes: PD-1/CD40: two PD-1 Fabs, terminal CD40 Fv (TM383)
B1: the binding result with PD-1 is reported as “binds”.

B2: Ly2415 (bispecific antibody, human IgG1, kappa)
chain 1: QVTLKESGPALVKPTQTLTLTCTFSGFSLSTSGTCVSWIRQPPGKALEWLATICWEDSKGYNPSLKSRLTISKDTSKNQAVLTMTNMDPVDTATYYCARREDSGYFWFPYWGQGTLVTVSSASTKGPSVFPLAPSSKSTSGGTAALGCLVKDYFPEPVTVSWNSGALTSGVHTFPAVLQSSGLYSLSSVVTVPSSSLGTQTYICNVNHKPSNTKVDKKVEPKSCDKTHTCPPCPAPEAAGPSVFLFPPKPKDTLMISRTPEVTCVVVDVSHEDPEVKFNWYVDGVEVHNAKTKPREEQYNSTYRVVSVLTVLHQDWLNGKEYKCKVSNKALPAPIEKTISKAKGQPREPQVYTLPPSREEMTKNQVSLWCLVKGFYPSDIAVEWESNGQPENNYKTTPPVLDSDGSFFLYSKLTVDKSRWQQGNVFSCSVMHEALHNHYTQKSLSLSPGGGGGSGGGGSGGGGSGGGGSEVQLVESGGGLVQPGGSLRLSCAASGFTFTNYGLHWVRQAPGKGLEWVSSISPSGGVTYYRDSVKGRFTISRDNSKNTLYLQMNSLRAEDTAVYYCAKPFLGWGGANWIAHWGQGTLVTVSS
chain 2: QVTLKESGPALVKPTQTLTLTCTFSGFSLSTSGTCVSWIRQPPGKALEWLATICWEDSKGYNPSLKSRLTISKDTSKNQAVLTMTNMDPVDTATYYCARREDSGYFWFPYWGQGTLVTVSSASTKGPSVFPLAPSSKSTSGGTAALGCLVKDYFPEPVTVSWNSGALTSGVHTFPAVLQSSGLYSLSSVVTVPSSSLGTQTYICNVNHKPSNTKVDKKVEPKSCDKTHTCPPCPAPEAAGPSVFLFPPKPKDTLMISRTPEVTCVVVDVSHEDPEVKFNWYVDGVEVHNAKTKPREEQYNSTYRVVSVLTVLHQDWLNGKEYKCKVSNKALPAPIEKTISKAKGQPREPQVYTLPPSREEMTKNQVSLSCAVKGFYPSDIAVEWESNGQPENNYKTTPPVLDSDGSFFLVSKLTVDKSRWQQGNVFSCSVMHEALHNRFTQKSLSLSPGGGGGSGGGGSGGGGSGGGGSDIQMTQSPSSLSASVGDRVTITCLASEDISNDLAWYQQKPGKAPKLLIYFVDRLLDGVPSRFSGSGSGTDFTLTISSLQPEDFATYYCQQSYKYPPTFGQGTKLEIK
light: NIQMTQSPSSLSASVGDRVTITCKAGQNVNNYLAWYQQKPGKAPKVLIFNANSLQTGVPSRFSGSGSGTDFTLTISSLQPEDFATYYCQQYNSWPTFGGGTKVEIKRTVAAPSVFIFPPSDEQLKSGTASVVCLLNNFYPREAKVQWKVDNALQSGNSQESVTEQDSKDSTYSLSSTLTLSKADYEKHKVYACEVTHQGLSSPVTKSFNRGEC
notes: PD-1/CD40: two PD-1 Fabs, terminal CD40 Fv (TM559)
Turning to B2, in the assay with PD-1, the binding result is “binds”.

B3: Ly2409 (bispecific antibody)
chain 1: QVTLKESGPALVKPTQTLTLTCTFSGFSLSTSGTCVSWIRQPPGKALEWLATICWEDSKGYNPSLKSRLTISKDTSKNQAVLTMTNMDPVDTATYYCARREDSGYFWFPYWGQGTLVTVSSASTKGPSVFPLAPSSKSTSGGTAALGCLVKDYFPEPVTVSWNSGALTSGVHTFPAVLQSSGLYSLSSVVTVPSSSLGTQTYICNVNHKPSNTKVDKKVEPKSCGGGGSGGGGSGGGGSGGGGSEVQLVESGGGLVQPGGSLRLSCAASGFTFTNYGLHWVRQAPGKGLEWVSSISPSGGVTYYRDSVKGRFTISRDNSKNTLYLQMNSLRAEDTAVYYCAKPFLGWGGANWIAHWGQGTLVTVSSGGGGSDKTHTCPPCPAPEAAGPSVFLFPPKPKDTLMISRTPEVTCVVVDVSHEDPEVKFNWYVDGVEVHNAKTKPREEQYNSTYRVVSVLTVLHQDWLNGKEYKCKVSNKALPAPIEKTISKAKGQPREPQVYTLPPSREEMTKNQVSLWCLVKGFYPSDIAVEWESNGQPENNYKTTPPVLDSDGSFFLYSKLTVDKSRWQQGNVFSCSVMHEALHNHYTQKSLSLSPG
chain 2: QVTLKESGPALVKPTQTLTLTCTFSGFSLSTSGTCVSWIRQPPGKALEWLATICWEDSKGYNPSLKSRLTISKDTSKNQAVLTMTNMDPVDTATYYCARREDSGYFWFPYWGQGTLVTVSSASTKGPSVFPLAPSSKSTSGGTAALGCLVKDYFPEPVTVSWNSGALTSGVHTFPAVLQSSGLYSLSSVVTVPSSSLGTQTYICNVNHKPSNTKVDKKVEPKSCGGGGSGGGGSGGGGSGGGGSDIQMTQSPSSLSASVGDRVTITCLASEDISNDLAWYQQKPGKAPKLLIYFVDRLLDGVPSRFSGSGSGTDFTLTISSLQPEDFATYYCQQSYKYPPTFGQGTKLEIKGGGGSDKTHTCPPCPAPEAAGPSVFLFPPKPKDTLMISRTPEVTCVVVDVSHEDPEVKFNWYVDGVEVHNAKTKPREEQYNSTYRVVSVLTVLHQDWLNGKEYKCKVSNKALPAPIEKTISKAKGQPREPQVYTLPPSREEMTKNQVSLSCAVKGFYPSDIAVEWESNGQPENNYKTTPPVLDSDGSFFLVSKLTVDKSRWQQGNVFSCSVMHEALHNRFTQKSLSLSPG
light: NIQMTQSPSSLSASVGDRVTITCKAGQNVNNYLAWYQQKPGKAPKVLIFNANSLQTGVPSRFSGSGSGTDFTLTISSLQPEDFATYYCQQYNSWPTFGGGTKVEIKRTVAAPSVFIFPPSDEQLKSGTASVVCLLNNFYPREAKVQWKVDNALQSGNSQESVTEQDSKDSTYSLSSTLTLSKADYEKHKVYACEVTHQGLSSPVTKSFNRGEC
notes: PD-1/CD40: two PD-1 Fabs, central CD40 Fv (TM559)
For the molecule B3, the binding result with PD-1 is given as “binds”.

B4: Ly2326 (bispecific antibody, human IgG1, kappa)
chain 1: QVQLQQSGAELVRPGSSVKISCKASGYAFSSYWMNWVKQRPGQGLEWIGQIWPGDGDTNYNGKFKGKATLTADESSSTAYMQLSSLASEDSAVYFCARRETTTVGRYYYAMDYWGQGTTVTVSSASTKGPSVFPLAPSSKSTSGGTAALGCLVKDYFPEPVTVSWNSGALTSGVHTFPAVLQSSGLYSLSSVVTVPSSSLGTQTYICNVNHKPSNTKVDKKVEPKSCDKTHTCPPCPAPEAAGPSVFLFPPKPKDTLMISRTPEVTCVVVDVSHEDPEVKFNWYVDGVEVHNAKTKPREEQYNSTYRVVSVLTVLHQDWLNGKEYKCKVSNKALPAPIEKTISKAKGQPREPQVYTLPPSREEMTKNQVSLWCLVKGFYPSDIAVEWESNGQPENNYKTTPPVLDSDGSFFLYSKLTVDKSRWQQGNVFSCSVMHEALHNHYTQKSLSLSPGGGGGSGGGGSGGGGSGGGGSQVQLVQSGAEVKKPGASVKVSCKASGYTFAGFEMHWVRQAPGQGLEWMGAIDPKTGGTDYNQKFKDRVTMTRDTSISTAYMELSRLRSDDTAVYYCARDLGYFDVWGQGTLVTVSS
chain 2: QVQLQQSGAELVRPGSSVKISCKASGYAFSSYWMNWVKQRPGQGLEWIGQIWPGDGDTNYNGKFKGKATLTADESSSTAYMQLSSLASEDSAVYFCARRETTTVGRYYYAMDYWGQGTTVTVSSASTKGPSVFPLAPSSKSTSGGTAALGCLVKDYFPEPVTVSWNSGALTSGVHTFPAVLQSSGLYSLSSVVTVPSSSLGTQTYICNVNHKPSNTKVDKKVEPKSCDKTHTCPPCPAPEAAGPSVFLFPPKPKDTLMISRTPEVTCVVVDVSHEDPEVKFNWYVDGVEVHNAKTKPREEQYNSTYRVVSVLTVLHQDWLNGKEYKCKVSNKALPAPIEKTISKAKGQPREPQVYTLPPSREEMTKNQVSLSCAVKGFYPSDIAVEWESNGQPENNYKTTPPVLDSDGSFFLVSKLTVDKSRWQQGNVFSCSVMHEALHNRFTQKSLSLSPGGGGGSGGGGSGGGGSGGGGSDIQMTQSPSSLSASVGDRVTITCRASQDIRSNLNWYQQKPGGAVKLLIYYTSRLHSGVPSRFSGSGSGTDYTLTISSLQPEDFATYFCQQSEKLPRTFGGGTKVEIR
light: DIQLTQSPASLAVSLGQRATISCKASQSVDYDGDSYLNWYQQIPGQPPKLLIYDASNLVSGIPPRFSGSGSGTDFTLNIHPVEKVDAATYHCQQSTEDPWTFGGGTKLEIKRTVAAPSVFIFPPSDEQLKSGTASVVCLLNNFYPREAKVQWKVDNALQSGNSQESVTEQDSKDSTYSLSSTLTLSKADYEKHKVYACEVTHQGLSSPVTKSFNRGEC
notes: CD19/CD137: two CD19 Fabs, terminal CD137 Fv
In the case of B4, the binding result with CD137 is on record as “binds”.
